# Test results from article PMC3424247, “The Crystal Structures of the Tryparedoxin-Tryparedoxin Peroxidase Couple Unveil the Structural Determinants of Leishmania Detoxification Pathway” (PLoS Neglected Tropical Diseases, 2012).
# B1: cytosolic tryparedoxin from Leishmania major (enzyme, UniProt E9ADX4 1-145, looked up)
# chain: MSGVAKHLGEALKLRKQADTADMDSLSGKTVFFYFSASWCPPCRGFTPQLVEFYEKHHDSKNFEIILASWDEEEDDFNAYYAKMPWLSIPFANRNIVEALTKKYSVESIPTLIGLNADTGDTVTTRARHALTQDPMGEQFPWRDE
# notes: cytosolic tryparedoxin (TXN1) of Leishmania major, gene amplified from L. major DNA with primers that hold the start (CATATG) and the stop codon; residues 2-145 seen in the crystal; Cloned between NdeI and HindIII of pET28b; the tag is probably N-terminal and thrombin probably leaves a few vector residues (surmised); Monomer-dimer equilibrium in solution, mostly monomer; also called LmTXN; TXN; …
# How the values were obtained:
# [1] = biological target: cytosolic tryparedoxin from Leishmania major (Leishmania major) (UniProt E9ADX4); test: SPR; as a6 but HBS-P buffer + 30 mM H2O2 (oxidizing conditions); LmTXNPx 80 nM-10 µM
# [2] = biological target: cytosolic tryparedoxin from Leishmania major (Leishmania major) (UniProt E9ADX4); test: SPR; as a6 but HBS-P buffer + 1 mM dithiotreitol (reducing conditions); LmTXNPx 40 nM-5 µM; for the dissociation rate DTT was added after 2080 s to the complex formed in HBS-P
# [3] = biological target: cytosolic tryparedoxin from Leishmania major (Leishmania major) (UniProt E9ADX4); test: SPR; BIACORE X, CM5 chip; LmTXN immobilised by amine coupling (about 1000 RU), LmTXNPx flowed over (40 nM-4.0 µM); 298 K; HBS-P buffer (10 mM HEPES pH 7.4, 0.15 M NaCl, 0.005% P-20); 30 µL/min; Scatchard analysis of Req
# [4] = biological target: tryparedoxin-dependent peroxidase from Leishmania major (Leishmania major); test: crystal structure; LmTXNPx about 12 mg/mL with 50 mM DTT, 22-26% PEG3350, 100 mM Bis-tris propane pH 8.0, 0.2 M KSCN, 293 K; five molecules per asymmetric unit, decamer from two adjacent asymmetric units; 3.0 Å
# [5] = biological target: tryparedoxin-dependent peroxidase from Leishmania major (Leishmania major); test: native gel or EMSA; Novex 4-12% Tris-Glycine non-denaturing gels; LmTXNPx 0.5 mg/mL with H2O2 (300, 30, 3 mM) or DTT (50, 5, 1 mM)
# [6] = biological target: the molecule itself; test: crystal structure; LmTXN about 8 mg/mL, hanging drop, 293 K, 20-24% PEG 3350, 100 mM Tris-HCl pH 8.5, 50 mM MgCl2; one molecule per asymmetric unit, dimer by crystallographic two-fold; 1.8 Å
molecule,measurement,setting,value
tryparedoxin-dependent peroxidase from Leishmania major (enzyme),Kd,[1],> 20 µM
same,koff,[1],> 0.1 s⁻¹
same,Kd,[2],> 20 µM
same,koff,[2],0.009 s⁻¹
same,Kd,[3],1.1 µM
same,koff,[3],5e-05 s⁻¹
same,stoichiometry N,[4],10
same,stoichiometry N,[5],10
B1,stoichiometry N,[6],2
